For one substance, stoichiometry N and trimer/monomer ratio results are on record in publication PMC5443882.

Experiment [1] concerns the target LHCII, the major light-harvesting pigment-protein complex of Photosystem II (Spinacia oleracea (endogenous in spinach leaves)). Put plainly: fluorescence correlation spectroscopy; mixture of LHCII trimers and monomers in 0.1% DM, illuminated with blue light of 100 µmol photons m^-2 s^-1 for 30 min, diluted to 3 nM; the form is assigned by its diffusion coefficient against monomer and trimer standards.

The target is the same in experiment [2]. Put plainly: native gel or EMSA; non-denaturing gel electrophoresis of LHCII isolated from dark-adapted spinach leaves, suspended in 0.1% DM; 3% stacking and 8% separating gel, 4 °C, running buffer 96 mM glycine, 12.5 mM Tris, 0.05% LDS.
For experiment [3] the target is unchanged. Description: native gel or EMSA; non-denaturing gel electrophoresis of LHCII-HL, isolated from spinach leaves pre-illuminated with 1200 µmol photons m^-2 s^-1, suspended in 0.1% DM; 4 °C, running buffer 96 mM glycine, 12.5 mM Tris, 0.05% LDS. Background: In EMSA bound probe runs differently from free probe, usually more slowly.
Experiment [4] shares this target. Description: native gel or EMSA; lipid-LHCII samples enriched with exogenously added zeaxanthin, separated by native electrophoresis; dimer bands cut out for spectroscopy.
The target is the same in experiment [5]. Put plainly: native gel or EMSA; identical experiment with thylakoid membranes from dark-adapted spinach leaves solubilised in 0.1% DM, electrophoresis under illumination of increasing intensity (Fig. S4).
For experiment [6] the target is unchanged. Description: native gel or EMSA; non-denaturing gel electrophoresis of LHCII from dark-adapted leaves in 0.1% DM under constant illumination from sample loading, each slot at a different light intensity (11-1240 µmol photons m^-2 s^-1); 4 °C.

“And” between values parts separate entries of the source, which are not always exact repeats. Equal values may be shown once.

The term stoichiometry N denotes the number of molecules, sites or subunits per partner or assembly. Regarding “LHCII, the major light-harvesting pigment-protein complex of Photosystem II (natural protein)”, the stoichiometry N in experiment [1] is 2; in experiment [2] it was 3; in experiment [3] it was 3 and 2; in experiment [4], 2; in experiment [5], 3 and 2; in experiment [6], 3 and 2. For the same substance, the trimer/monomer ratio in experiment [2] was 2.82; in experiment [3], 0.71.
